Data reported in PMC5397160, “Insights into the RecQ helicase mechanism revealed by the structure of the helicase domain of human RECQL5”.

Assays:
RECQL5 11-526 Y419A = RECQL5 11-526 Y419A (human, UniProt O94762 11-526, Y419A); test: fluorescence polarization; FP: 10 mM HEPES pH 7.5, 150 mM NaCl, 25 C, 10 nM FITC probe; no nucleotide or Mg stated; settings: protein: recombinant; tags: none (His tag cleaved with TEV); label: 5' fluorescein (FITC) on RQ-1; fork 1:2, 31 bp, RQ-1 5' arm 32 nt, RQ-3 3' arm 30 nt
RECQL5 11-526 Y419A, sequence (O94762 11-526 Y419A): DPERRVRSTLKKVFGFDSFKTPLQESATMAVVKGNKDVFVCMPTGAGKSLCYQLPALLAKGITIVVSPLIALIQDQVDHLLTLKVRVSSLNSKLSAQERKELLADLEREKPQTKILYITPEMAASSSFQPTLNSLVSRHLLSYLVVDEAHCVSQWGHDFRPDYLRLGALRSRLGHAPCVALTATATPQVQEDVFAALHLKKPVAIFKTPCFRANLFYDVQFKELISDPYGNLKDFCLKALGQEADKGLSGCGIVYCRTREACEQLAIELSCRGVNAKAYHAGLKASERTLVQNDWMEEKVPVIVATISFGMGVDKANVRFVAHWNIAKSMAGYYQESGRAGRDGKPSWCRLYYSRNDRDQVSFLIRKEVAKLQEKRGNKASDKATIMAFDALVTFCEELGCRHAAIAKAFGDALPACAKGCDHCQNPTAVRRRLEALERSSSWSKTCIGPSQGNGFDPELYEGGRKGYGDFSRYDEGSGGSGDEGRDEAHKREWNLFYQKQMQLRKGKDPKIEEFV

RECQL5 11-526 F420A = RECQL5 11-526 F420A (human, UniProt O94762 11-526, F420A); test: as above; settings: protein: recombinant; tags: none (His tag cleaved with TEV); label: 5' fluorescein (FITC) on RQ-1; fork 1:2, 31 bp, RQ-1 5' arm 32 nt, RQ-3 3' arm 30 nt
RECQL5 11-526 F420A, sequence (O94762 11-526 F420A): as the sequence (O94762 11-526 Y419A) above, with A409Y, F410A counted along it

RECQL5 11-609 = RECQL5 11-609 (human, UniProt O94762 11-609); test: as above; settings: protein: recombinant, tags: none (His tag cleaved with TEV)
RECQL5 11-609, sequence (O94762 11-609): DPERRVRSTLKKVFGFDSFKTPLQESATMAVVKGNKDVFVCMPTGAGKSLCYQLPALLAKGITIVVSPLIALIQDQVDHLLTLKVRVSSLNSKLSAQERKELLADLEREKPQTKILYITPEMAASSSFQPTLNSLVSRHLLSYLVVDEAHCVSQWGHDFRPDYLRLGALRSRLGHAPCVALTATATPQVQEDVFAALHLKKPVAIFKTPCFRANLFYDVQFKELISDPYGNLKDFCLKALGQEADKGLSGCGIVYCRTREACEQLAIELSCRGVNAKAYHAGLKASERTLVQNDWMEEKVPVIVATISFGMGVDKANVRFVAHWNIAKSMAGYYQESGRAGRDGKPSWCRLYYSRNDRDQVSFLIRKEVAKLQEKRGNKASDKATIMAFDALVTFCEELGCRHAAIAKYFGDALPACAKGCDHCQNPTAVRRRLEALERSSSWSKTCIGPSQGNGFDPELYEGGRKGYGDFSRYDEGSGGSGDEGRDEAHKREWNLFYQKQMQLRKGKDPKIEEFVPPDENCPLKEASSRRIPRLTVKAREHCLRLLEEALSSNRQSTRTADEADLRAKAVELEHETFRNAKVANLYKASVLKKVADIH

RECQL5 11-526 D422A = RECQL5 11-526 D422A (human, UniProt O94762 11-526, D422A); test: as above; settings: protein: recombinant; tags: none (His tag cleaved with TEV); label: 5' fluorescein (FITC) on RQ-1; fork 1:2, 31 bp, RQ-1 5' arm 32 nt, RQ-3 3' arm 30 nt
RECQL5 11-526 D422A, sequence (O94762 11-526 D422A): as the sequence (O94762 11-526 Y419A) above, with A409Y, D412A counted along it

RECQL5 11-526 R352G = RECQL5 11-526 R352G (human, UniProt O94762 11-526, R352G); test: as above; settings: protein: recombinant; tags: none (His tag cleaved with TEV); label: 5' fluorescein (FITC) on RQ-1; fork 1:2, 31 bp, RQ-1 5' arm 32 nt, RQ-3 3' arm 30 nt
RECQL5 11-526 R352G, sequence (O94762 11-526 R352G): as the sequence (O94762 11-526 Y419A) above, with R342G, A409Y counted along it

RECQL5 11-526 = RECQL5 11-526 (human, UniProt O94762 11-526); test: as above; settings: protein: recombinant; tags: none (His tag cleaved with TEV); label: 5' fluorescein (FITC) on RQ-1; fork 1:2, 31 bp, RQ-1 5' arm 32 nt, RQ-3 3' arm 30 nt
RECQL5 11-526, sequence (O94762 11-526): as the sequence (O94762 11-526 Y419A) above, with A409Y counted along it

RECQL5 11-526 Q345A = RECQL5 11-526 Q345A (human, UniProt O94762 11-526, Q345A); test: as above; settings: protein: recombinant; tags: none (His tag cleaved with TEV); label: 5' fluorescein (FITC) on RQ-1; fork 1:2, 31 bp, RQ-1 5' arm 32 nt, RQ-3 3' arm 30 nt
RECQL5 11-526 Q345A, sequence (O94762 11-526 Q345A): as the sequence (O94762 11-526 Y419A) above, with Q335A, A409Y counted along it

RECQL5 11-526 W165A = RECQL5 11-526 W165A (human, UniProt O94762 11-526, W165A); test: as above; settings: protein: recombinant; tags: none (His tag cleaved with TEV); label: 5' fluorescein (FITC) on RQ-1; fork 1:2, 31 bp, RQ-1 5' arm 32 nt, RQ-3 3' arm 30 nt
RECQL5 11-526 W165A, sequence (O94762 11-526 W165A): as the sequence (O94762 11-526 Y419A) above, with W155A, A409Y counted along it

RECQL5 11-526 D168A = RECQL5 11-526 D168A (human, UniProt O94762 11-526, D168A); test: as above; settings: protein: recombinant; tags: none (His tag cleaved with TEV); label: 5' fluorescein (FITC) on RQ-1; fork 1:2, 31 bp, RQ-1 5' arm 32 nt, RQ-3 3' arm 30 nt
RECQL5 11-526 D168A, sequence (O94762 11-526 D168A): as the sequence (O94762 11-526 Y419A) above, with D158A, A409Y counted along it

RECQL5 11-526 H167A = RECQL5 11-526 H167A (human, UniProt O94762 11-526, H167A); test: as above; settings: protein: recombinant; tags: none (His tag cleaved with TEV); label: 5' fluorescein (FITC) on RQ-1; fork 1:2, 31 bp, RQ-1 5' arm 32 nt, RQ-3 3' arm 30 nt
RECQL5 11-526 H167A, sequence (O94762 11-526 H167A): as the sequence (O94762 11-526 Y419A) above, with H157A, A409Y counted along it

RECQL5 11-453 = RECQL5 11-453 (human, UniProt O94762 11-453); test: as above; settings: protein: recombinant; tags: none (His tag cleaved with TEV); label: 5' fluorescein (FITC) on RQ-1; fork 1:2, 31 bp, RQ-1 5' arm 32 nt, RQ-3 3' arm 30 nt
RECQL5 11-453, sequence (O94762 11-453): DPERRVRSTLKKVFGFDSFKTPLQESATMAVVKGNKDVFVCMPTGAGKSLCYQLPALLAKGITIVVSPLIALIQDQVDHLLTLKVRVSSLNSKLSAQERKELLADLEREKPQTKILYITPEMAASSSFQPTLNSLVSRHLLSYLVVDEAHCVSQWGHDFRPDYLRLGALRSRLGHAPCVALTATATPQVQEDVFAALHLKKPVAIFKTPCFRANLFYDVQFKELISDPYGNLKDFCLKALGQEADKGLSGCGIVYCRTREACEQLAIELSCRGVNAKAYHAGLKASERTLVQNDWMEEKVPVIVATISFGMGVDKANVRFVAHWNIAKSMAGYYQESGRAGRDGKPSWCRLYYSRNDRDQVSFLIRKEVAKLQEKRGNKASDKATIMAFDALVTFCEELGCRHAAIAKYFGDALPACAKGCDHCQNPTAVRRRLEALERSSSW

RECQL5 11-438 = RECQL5 11-438 (human, UniProt O94762 11-438); test: fluorescence polarization; shared Bmax fit; FP: 10 mM HEPES pH 7.5, 150 mM NaCl, 25 C, 10 nM FITC probe; no nucleotide or Mg stated; settings: protein: recombinant; tags: none (His tag cleaved with TEV); label: 5' fluorescein (FITC) on RQ-1; fork 1:2, 31 bp, RQ-1 5' arm 32 nt, RQ-3 3' arm 30 nt
RECQL5 11-438, sequence (O94762 11-438): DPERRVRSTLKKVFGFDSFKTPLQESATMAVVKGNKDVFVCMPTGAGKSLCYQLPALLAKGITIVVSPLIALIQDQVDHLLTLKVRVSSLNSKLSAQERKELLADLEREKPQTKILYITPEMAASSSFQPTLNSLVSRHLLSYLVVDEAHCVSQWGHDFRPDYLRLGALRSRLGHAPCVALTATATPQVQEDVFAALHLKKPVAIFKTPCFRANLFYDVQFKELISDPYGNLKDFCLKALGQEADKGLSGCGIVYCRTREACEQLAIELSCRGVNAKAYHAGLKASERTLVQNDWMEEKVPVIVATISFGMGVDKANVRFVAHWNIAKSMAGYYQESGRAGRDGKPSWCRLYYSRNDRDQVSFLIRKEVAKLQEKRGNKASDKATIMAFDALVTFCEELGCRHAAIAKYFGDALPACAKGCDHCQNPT

RECQL5 11-526 R349A = RECQL5 11-526 R349A (human, UniProt O94762 11-526, R349A); test: fluorescence polarization; value marked * in table; FP: 10 mM HEPES pH 7.5, 150 mM NaCl, 25 C, 10 nM FITC probe; no nucleotide or Mg stated; settings: protein: recombinant; tags: none (His tag cleaved with TEV); label: 5' fluorescein (FITC) on RQ-1; fork 1:2, 31 bp, RQ-1 5' arm 32 nt, RQ-3 3' arm 30 nt
RECQL5 11-526 R349A, sequence (O94762 11-526 R349A): as the sequence (O94762 11-526 Y419A) above, with R339A, A409Y counted along it

B1: splayed duplex (RQ-1 + RQ-3) (mixed)
DNA 1: ATCGATAGTCGGATCCTCTAGACAGCTCCATGTAGCAAGGCACTGGTAGAATTCGGCAGCGTC
DNA 2: GACGCTGCCGAATTCTACCAGTGCCTTGCTAGGACATCTTTGCCCACCTGCAGGTTCACCC
For B1, the Kd (RECQL5 11-526 Y419A) was 39 ± 10 nM, the Kd (RECQL5 11-526 F420A) was 45 ± 3 nM and the Kd (RECQL5 11-609; label: 5' fluorescein (FITC) on RQ-1, fork 1:2, 31 bp, RQ-1 5' arm 32 nt, RQ-3 3' arm 30 nt) was 29 ± 4 nM. For the same binder, the Kd (RECQL5 11-526 D422A) was 38 ± 4 nM, the Kd (RECQL5 11-526 R352G) was 29 ± 2 nM and the Kd (RECQL5 11-526) was 51 ± 5 nM. The Kd (RECQL5 11-526 Q345A) was 85 ± 4 nM, the Kd (RECQL5 11-526 W165A) was 169 ± 6 nM and the Kd (RECQL5 11-526 D168A) was 25 ± 2 nM. For the same binder, the Kd (RECQL5 11-526 H167A) was 108 ± 5 nM, the Kd (RECQL5 11-453) was 49 ± 28 nM and the Kd (RECQL5 11-438) was 164 ± 34 nM. The Kd (RECQL5 11-526 R349A) was 295 ± 29 nM.

B2: single stranded (RQ-1) (ssDNA)
DNA: B1 DNA 1
B2: binds (RECQL5 11-609; label: 5' fluorescein (FITC), single strand).

B3: double stranded (RQ-1 + RQ-2) (dsDNA)
DNA 1: B1 DNA 1
DNA 2: GACGCTGCCGAATTCTACCAGTGCCTTGCTACATGGAGCTGTCTAGAGGATCCGACTATCGAT
B3: binds (RECQL5 11-609; label: 5' fluorescein (FITC) on RQ-1, blunt).
